Experimental findings from patent US20220372155A1 (LYVGEN BIOPHARMA, published 2022) are described below.

The labels stand for the following.
B1: Ly339 (bispecific antibody, human IgG1, kappa)
heavy: QVQLVQSGAEVKKPGASVKVSCKASGYTFTDFWMSWVRQAPGQGLEWMGQIYPNTGTTHSNEKFKGRVTMTRDTSTSTVYMELSSLRSEDTAVYYCARSYHISTTPNWFAYWGQGTLVTVSSASTKGPSVFPLAPSSKSTSGGTAALGCLVKDYFPEPVTVSWNSGALTSGVHTFPAVLQSSGLYSLSSVVTVPSSSLGTQTYICNVNHKPSNTKVDKKVEPKSCDKTHTCPPCPAPELLGPSVFLFPPKPKDTLMISRTPEVTCVVVDVSHEDPEVKFNWYVDGVEVHNAKTKPREEQYNSTYRVVSVLTVLHQDWLNGKEYKCKVSNKALPAPIEKTISKAKGQPREPQVYTLPPSREEMTKNQVSLTCLVKGFYPSDIAVEWESNGQPENNYKTTPPVLDSDGSFFLYSKLTVDKSRWQQGNVFSCSVMHEALHNHYTQKSLSLSPG
light: DIQMTQSPSSLSASVGDRVTITCKASQNVYKKLEWYQQKPGKVPKVLIYHTNILQTGVPSRFSGSGSGTDYTLTISSLQPEDVATYYCYQWNSGPTFGGGTKVEIKRTVAAPSVFIFPPSDEQLKSGTASVVCLLNNFYPREAKVQWKVDNALQSGNSQESVTEQDSKDSTYSLSSTLTLSKADYEKHKVYACEVTHQGLSSPVTKSFNRGECGGGGSGGGGSGGGGSGGGGSQVQLVESGGGLVQPGGSLKLSCATSGFNFNDYFMNWVRQASGKGLEWVGQIRNKNYNYATYYTESLEGRVTISRDDSKNTAYLQMNSLKTEDTAVYYCTSYYYDGFADYFDYWGQGTTVTVSSGGGGSGGGGSGGGGSGGGGSDIQMTQSPSSLSASVGDRVTITCKASQNIYIYLNWYQQKPGKAPKLLIYNTNNLQTGVPSRFSGSGSGTDFTLTISSLQPEDFATYYCLQHSSRRTFGGGTKVEIK
notes: Ly076 HC (IgG1 mutated Fc) + Ly076 LC-TM740 scFv VH-VL
B2: Ly350 (bispecific antibody, human IgG1, kappa)
heavy: B1 heavy
light: DIQMTQSPSSLSASVGDRVTITCKASQNVYKKLEWYQQKPGKVPKVLIYHTNILQTGVPSRFSGSGSGTDYTLTISSLQPEDVATYYCYQWNSGPTFGGGTKVEIKRTVAAPSVFIFPPSDEQLKSGTASVVCLLNNFYPREAKVQWKVDNALQSGNSQESVTEQDSKDSTYSLSSTLTLSKADYEKHKVYACEVTHQGLSSPVTKSFNRGECGGGGSGGGGSGGGGSGGGGSDIQMTQSPSSLSASVGDRVTITCLASEDISNDLAWYQQKPGKAPKLLIYFVDRLLDGVPSRFSGSGSGTDFTLTISSLQPEDFATYYCQQSYKYPPTFGQGTKLEIKGGGGSGGGGSGGGGSGGGGSEVQLVESGGGLVQPGGSLRLSCAASGFTFTNYGLHWVRQAPGKGLEWVSSISPSGGVTYYRDSVKGRFTISRDNSKNTLYLQMNSLRAEDTAVYYCAKPFLGWGGANWIAHWGQGTLVTVSS
notes: Ly076 HC (IgG1 mutated Fc) + Ly076 LC-TM559 scFv VL-VH
B3: Ly303 (bispecific antibody, human IgG1, kappa)
heavy: QVQLVQSGAEVKKPGASVKVSCKASGYTFTDFWMSWVRQAPGQGLEWMGQIYPNTGTTHSNEKFKGRVTMTRDTSTSTVYMELSSLRSEDTAVYYCARSYHISTTPNWFAYWGQGTLVTVSSASTKGPSVFPLAPSSKSTSGGTAALGCLVKDYFPEPVTVSWNSGALTSGVHTFPAVLQSSGLYSLSSVVTVPSSSLGTQTYICNVNHKPSNTKVDKKVEPKSCDKTHTCPPCPAPELLGPSVFLFPPKPKDTLMISRTPEVTCVVVDVSHEDPEVKFNWYVDGVEVHNAKTKPREEQYNSTYRVVSVLTVLHQDWLNGKEYKCKVSNKALPAPIEKTISKAKGQPREPQVYTLPPSREEMTKNQVSLTCLVKGFYPSDIAVEWESNGQPENNYKTTPPVLDSDGSFFLYSKLTVDKSRWQQGNVFSCSVMHEALHNHYTQKSLSLSPGGGGGSGGGGSGGGGSGGGGSDIQMTQSPSSLSASVGDRVTITCLASEDISNDLAWYQQKPGKAPKLLIYFVDRLLDGVPSRFSGSGSGTDFTLTISSLQPEDFATYYCQQSYKYPPTFGQGTKLEIKGGGGSGGGGSGGGGSGGGGSEVQLVESGGGLVQPGGSLRLSCAASGFTFTNYGLHWVRQAPGKGLEWVSSISPSGGVTYYRDSVKGRFTISRDNSKNTLYLQMNSLRAEDTAVYYCAKPFLGWGGANWIAHWGQGTLVTVSS
light: DIQMTQSPSSLSASVGDRVTITCKASQNVYKKLEWYQQKPGKVPKVLIYHTNILQTGVPSRFSGSGSGTDYTLTISSLQPEDVATYYCYQWNSGPTFGGGTKVEIKRTVAAPSVFIFPPSDEQLKSGTASVVCLLNNFYPREAKVQWKVDNALQSGNSQESVTEQDSKDSTYSLSSTLTLSKADYEKHKVYACEVTHQGLSSPVTKSFNRGEC
notes: Ly076 HC (IgG1 mutated Fc)-TM559 scFv VL-VH + Ly076 LC
B4: Ly340 (bispecific antibody, human IgG1, kappa)
heavy: QVQLVQSGAEVKKPGASVKVSCKASGYTFTDFWMSWVRQAPGQGLEWMGQIYPNTGTTHSNEKFKGRVTMTRDTSTSTVYMELSSLRSEDTAVYYCARSYHISTTPNWFAYWGQGTLVTVSSASTKGPSVFPLAPSSKSTSGGTAALGCLVKDYFPEPVTVSWNSGALTSGVHTFPAVLQSSGLYSLSSVVTVPSSSLGTQTYICNVNHKPSNTKVDKKVEPKSCDKTHTCPPCPAPELLGPSVFLFPPKPKDTLMISRTPEVTCVVVDVSHEDPEVKFNWYVDGVEVHNAKTKPREEQYNSTYRVVSVLTVLHQDWLNGKEYKCKVSNKALPAPIEKTISKAKGQPREPQVYTLPPSREEMTKNQVSLTCLVKGFYPSDIAVEWESNGQPENNYKTTPPVLDSDGSFFLYSKLTVDKSRWQQGNVFSCSVMHEALHNHYTQKSLSLSPGGGGGSGGGGSGGGGSGGGGSEVQLVESGGGLVQPGGSLRLSCAASGFTFTNYGLHWVRQAPGKGLEWVSSISPSGGVTYYRDSVKGRFTISRDNSKNTLYLQMNSLRAEDTAVYYCAKPFLGWGGANWIAHWGQGTLVTVSSGGGGSGGGGSGGGGSGGGGSDIQMTQSPSSLSASVGDRVTITCLASEDISNDLAWYQQKPGKAPKLLIYFVDRLLDGVPSRFSGSGSGTDFTLTISSLQPEDFATYYCQQSYKYPPTFGQGTKLEIK
light: B3 light
notes: Ly076 HC (IgG1 mutated Fc)-TM559 scFv VH-VL + Ly076 LC

For the first assay, the target named is T1, human CD40 expressed on CHO cells (human, UniProt P25942 21-277).
T1 construct: whole, on cells; also used for the reporter cells over-expressing human CD40; also called cellular CD40; CHO-CD40 cells
T1 sequence (P25942 21-277): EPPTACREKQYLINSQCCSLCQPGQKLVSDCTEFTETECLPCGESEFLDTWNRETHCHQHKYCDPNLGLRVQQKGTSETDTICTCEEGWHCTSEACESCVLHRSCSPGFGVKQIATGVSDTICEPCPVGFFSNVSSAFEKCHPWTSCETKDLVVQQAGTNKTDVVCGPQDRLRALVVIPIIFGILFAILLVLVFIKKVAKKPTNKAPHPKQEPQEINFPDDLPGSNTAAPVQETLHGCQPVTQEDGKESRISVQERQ
Briefly: FACS, CHO cells. Background: Flow cytometry measures light scatter and fluorescence of single cells or particles in a stream.
B1: the binding result was “binds”.

B2: the binding result was “binds”.

On to B3, for which the binding result is “binds”.

With B4, the binding result was “binds”.

In the next assay the target is T2, human PD-L1 expressed on CHO cells (human, UniProt Q9NZQ7 19-290).
T2 construct: whole, on cells; also used for human PD-L1 on Raji cells in the reporter assay; also called cell surface PD-L1; Raji-PD-L1 cells
T2 sequence (Q9NZQ7 19-290): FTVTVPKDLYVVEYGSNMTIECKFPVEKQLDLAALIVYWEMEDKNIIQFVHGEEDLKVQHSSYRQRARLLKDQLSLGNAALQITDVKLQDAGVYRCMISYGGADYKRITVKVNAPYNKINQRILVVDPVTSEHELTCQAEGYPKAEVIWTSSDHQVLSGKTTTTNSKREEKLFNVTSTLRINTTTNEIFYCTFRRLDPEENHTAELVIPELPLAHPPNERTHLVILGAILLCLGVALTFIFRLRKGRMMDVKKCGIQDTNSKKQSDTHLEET
Briefly: FACS, CHO cells.
In the case of B1, the binding result is “binds”.

On to B2, for which the binding result is listed as “binds”.

Consider B3, for which the binding result is on record as “binds”.

In the case of B4, the binding result is recorded as “binds”.

The target in the next assay is T3, Human PD-L1 ECD protein (mouse IgG2a Fc tag) (human, UniProt Q9NZQ7 19-238).
T3 construct: extracellular domain; also called recombinant human PD-L1; not shown: mouse IgG2a Fc tag
T3 sequence (Q9NZQ7 19-238): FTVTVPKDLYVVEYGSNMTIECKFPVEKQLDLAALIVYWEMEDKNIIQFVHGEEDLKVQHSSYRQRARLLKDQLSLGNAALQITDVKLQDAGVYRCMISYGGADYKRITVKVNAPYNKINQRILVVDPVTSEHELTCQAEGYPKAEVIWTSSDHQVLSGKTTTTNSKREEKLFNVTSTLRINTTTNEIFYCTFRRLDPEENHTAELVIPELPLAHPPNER
Briefly: bridging ELISA, coated CD40 ECD-His, soluble PD-L1 ECD-mFc.
Take B1: the binding result was “binds”.

As for B2, the binding result was “binds”.

For the molecule B3, the binding result is “binds”.

B4: the binding result is “binds”.

In the next assay the target is T4, Ly090 (human CD40 ECD protein with His tag) (human, UniProt P25942 21-193).
T4 construct: extracellular domain; also called human CD40 ECD protein (His tag); recombinant human CD40; not shown: His tag
T4 sequence (P25942 21-193): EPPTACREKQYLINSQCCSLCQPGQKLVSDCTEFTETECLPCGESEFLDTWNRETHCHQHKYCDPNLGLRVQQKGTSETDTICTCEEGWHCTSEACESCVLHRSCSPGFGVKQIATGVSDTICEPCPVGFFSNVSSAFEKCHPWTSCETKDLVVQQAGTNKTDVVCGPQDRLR
The description is as above.
As to B1, the binding result is listed as “binds”.

Regarding B2, the binding result is reported as “binds”.

For B3, the binding result was “binds”.

As to B4, the binding result is given as “binds”.
